Assay results as given in article PMC2504713 (Journal of Leukocyte Biology, 2008).
One block for each molecule: values may come before it.

Experiments:
[1] = biological target: Recombinant rat Nrp1, conjugated to an Fc fragment of human IgG1 (Nrp1-Fc) (rat) (UniProt Q9QWJ9); experiment: ELISA
[2] = biological target: T1, LAP C-terminal peptide QSSRHRR; experiment: ELISA
T1 peptide: Ac-QSSRHRR-OH

IC50 [1]: 0.89 nM | Kd [1]: 0.04 nM
Molecule: Active (mature) TGF-β1 (ligand)

EC50 [1]: 0.338 nM
Molecule: LAP-TGF-β1 (the latent form of TGF-β1) (from UniProt P01137 30-278) (complex)

EC50 [2]: 4.18 ± 0.99 nM
B1: Recombinant rat Nrp1, conjugated to an Fc fragment of human IgG1 (Nrp1-Fc) (Fc fusion, UniProt Q9QWJ9 22-855, looked up)
chain: FRSDKCGGTIKIENPGYLTSPGYPHSYHPSEKCEWLIQAPEPYQRIMINFNPHFDLEDRDCKYDYVEVIDGENEGGRLWGKFCGKIAPSPVVSSGPFLFIKFVSDYETHGAGFSIRYEIFKRGPECSQNYTAPTGVIKSPGFPEKYPNSLECTYIIFAPKMSEIILEFESFDLEQDSNPPGGVFCRYDRLEIWDGFPEVGPHIGRYCGQKTPGRIRSSSGILSMVFYTDSAIAKEGFSANYSVLQSSISEDFKCMEALGMESGEIHSDQITASSQYGTNWSVERSRLNYPENGWTPGEDSYREWIQVDLGLLRFVTAVGTQGAISKETKKKYYVKTYRVDISSNGEDWITLKEGNKAIIFQGNTNPTDVVFGVFPKPLITRFVRIKPASWETGISMRFEVYGCKITDYPCSGMLGMVSGLISDSQITASNQGDRNWMPENIRLVTSRTGWALPPSPHPYINEWLQVDLGDEKIVRGVIIQGGKHRENKVFMRKFKIAYSNNGSDWKMIMDDSKRKAKSFEGNNNYDTPELRAFTPLSTRFIRIYPERATHSGLGLRMELLGCEVEVPTAGPTTPNGNPVDECDDDQANCHSGTGDDFQLTGGTTVLATEKPTIIDSTIQSEFPTYGFNCEFGWGSHKTFCHWEHDSHAQLRWRVLTSKTGPIQDHTGDGNFIYSQADENQKGKVARLVSPVVYSQSSAHCMTFWYHMSGSHVGTLRVKLHYQKPEEYDQLVWMVVGHQGDHWKEGRVLLHKSLKLYQVIFEGEIGKGNLGGIAVDDISINNHIPQEDCAKPTDLDKKNTEIKIDETGSTPGYEEGKGDKNISRKPGNVLKTLDP
